Experimental data as given in publication PMC10919400.

Key:
human plasmin = human plasmin (UniProt P00747); assay: whole-bacteria Pln binding; bound Pln activity measured with chromogenic substrate (VALY); conditions: +Pln: S. suis is incubated with Pln; parent: est. 100; read off a plot
human plasminogen = assay: whole-bacteria Plg binding; bound Plg converted to Pln with tPA, Pln activity measured with chromogenic substrate (VALY); conditions: +Plg/+tPA: S. suis is incubated with Plg and tPA; parent: est. 100; read off a plot

UniProt P00747, sequence (P00747 581-810, chain 1 of 2): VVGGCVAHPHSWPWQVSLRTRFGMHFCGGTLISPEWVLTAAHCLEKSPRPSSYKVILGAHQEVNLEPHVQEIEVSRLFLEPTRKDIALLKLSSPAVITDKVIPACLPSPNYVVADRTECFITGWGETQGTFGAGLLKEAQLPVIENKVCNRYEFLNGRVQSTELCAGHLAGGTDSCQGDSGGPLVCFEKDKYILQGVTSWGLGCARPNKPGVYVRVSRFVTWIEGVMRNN
UniProt P00747, sequence (P00747 581-810, chain 2 of 2): as the sequence (P00747 581-810, chain 1 of 2) above

Substance | percent of parent (% of wild-type) (human plasmin) | percent of parent (% of wild-type) (human plasminogen)
Streptococcus suis P1/7 enolase, wild type, on intact bacteria (from UniProt A4W2T1) K252A; E253G; K255A | 63 | 55
Streptococcus suis P1/7 enolase, wild type, on intact bacteria (from UniProt A4W2T1) K252A; K261A | 50 | 57
Streptococcus suis P1/7 enolase, wild type, on intact bacteria (from UniProt A4W2T1) K261A | 56 | 58
Streptococcus suis P1/7 enolase, wild type, on intact bacteria (from UniProt A4W2T1) K434A; K435A | 46 | 55
